PMC9517163
pKd: −log10 of the molar value.

Molecular target: minke whale ACE2, mFc-tagged (minke whale)
Experiment: SPR

SARS-CoV-2 receptor-binding domain (RBD), prototype (from UniProt P0DTC2) (domain or fragment)
pKd: 6.81
